The record followed here is paper PMC7007264.

The target in this data set is Rad51-2A (Saccharomyces cerevisiae, UniProt P25454 1-400, S125A;S375A). As to the kind of experiment: EMSA.
Sequence of Rad51-2A (P25454 whole entry S125A/S375A): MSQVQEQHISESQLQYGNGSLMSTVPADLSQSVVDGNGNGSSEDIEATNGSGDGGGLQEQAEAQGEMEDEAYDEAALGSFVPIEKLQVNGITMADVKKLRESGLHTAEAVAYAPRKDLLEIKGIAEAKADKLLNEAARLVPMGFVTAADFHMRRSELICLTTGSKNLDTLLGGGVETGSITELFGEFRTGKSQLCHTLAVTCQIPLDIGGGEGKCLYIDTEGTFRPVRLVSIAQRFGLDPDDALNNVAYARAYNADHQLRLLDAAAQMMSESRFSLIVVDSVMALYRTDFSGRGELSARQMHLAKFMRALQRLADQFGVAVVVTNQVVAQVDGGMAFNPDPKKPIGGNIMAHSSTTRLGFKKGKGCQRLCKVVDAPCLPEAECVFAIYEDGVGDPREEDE

B1: ssDNA EMSA probe (ssDNA)
DNA: CGGGTGTCGGGGCTGGCTTAACTATGCGGCATCAGAGCAGATTGTACTGAGAGTGCACCATATGCGGTGTGAAATACCGCACAGATGCGT
Turning to B1, the binding result was “no binding”.
